Biological target: CAPS1 (calcium-dependent activator protein for secretion, CADPS) (rat (endogenous in rat brain)) (UniProt Q62717)
Experiment: affinity purification with mass spectrometry; CAPS1 immunoprecipitate of detergent extract resolved by SDS-PAGE; Coomassie-stained bands seen in the CAPS1 but not the control immunoprecipitate excised, in-gel digests, LC-MS/MS

Sequence of CAPS1 (calcium-dependent activator protein for secretion, CADPS) (rat (endogenous in rat brain)) (Q62717 whole entry): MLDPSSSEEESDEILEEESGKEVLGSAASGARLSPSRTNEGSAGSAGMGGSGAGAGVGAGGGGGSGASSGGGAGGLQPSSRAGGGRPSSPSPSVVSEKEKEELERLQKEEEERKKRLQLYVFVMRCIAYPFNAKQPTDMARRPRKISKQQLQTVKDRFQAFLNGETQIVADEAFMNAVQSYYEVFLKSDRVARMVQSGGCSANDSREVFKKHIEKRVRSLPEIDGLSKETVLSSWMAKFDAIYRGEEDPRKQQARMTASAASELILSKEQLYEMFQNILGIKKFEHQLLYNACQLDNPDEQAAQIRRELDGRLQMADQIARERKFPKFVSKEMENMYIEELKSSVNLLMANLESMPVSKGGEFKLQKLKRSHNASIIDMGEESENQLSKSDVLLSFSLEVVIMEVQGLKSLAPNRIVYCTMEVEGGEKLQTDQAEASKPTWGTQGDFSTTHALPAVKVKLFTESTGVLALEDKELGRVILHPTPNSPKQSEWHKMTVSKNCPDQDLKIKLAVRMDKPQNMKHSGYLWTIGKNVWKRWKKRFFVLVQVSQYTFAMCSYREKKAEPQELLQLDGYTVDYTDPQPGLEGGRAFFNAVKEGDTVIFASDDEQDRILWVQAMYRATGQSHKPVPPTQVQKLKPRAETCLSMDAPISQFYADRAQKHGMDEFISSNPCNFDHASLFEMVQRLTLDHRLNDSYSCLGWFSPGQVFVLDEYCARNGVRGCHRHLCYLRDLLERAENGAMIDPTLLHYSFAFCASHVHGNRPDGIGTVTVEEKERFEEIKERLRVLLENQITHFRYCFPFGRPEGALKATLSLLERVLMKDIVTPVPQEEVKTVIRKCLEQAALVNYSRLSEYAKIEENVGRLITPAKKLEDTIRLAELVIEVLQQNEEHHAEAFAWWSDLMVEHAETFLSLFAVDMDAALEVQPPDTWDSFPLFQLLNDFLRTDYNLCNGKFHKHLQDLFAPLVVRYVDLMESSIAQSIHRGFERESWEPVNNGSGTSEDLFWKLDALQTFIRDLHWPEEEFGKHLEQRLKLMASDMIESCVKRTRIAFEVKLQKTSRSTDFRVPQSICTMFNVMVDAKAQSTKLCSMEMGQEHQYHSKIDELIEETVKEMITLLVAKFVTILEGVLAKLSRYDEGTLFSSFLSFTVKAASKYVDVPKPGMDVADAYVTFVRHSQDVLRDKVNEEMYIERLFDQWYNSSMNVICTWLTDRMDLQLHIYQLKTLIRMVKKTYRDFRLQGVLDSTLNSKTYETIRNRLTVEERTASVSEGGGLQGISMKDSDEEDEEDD

Rabconnectin3α (Rbcn3α) / Dmx-like 2 (DMXL2) (natural protein)
stoichiometry relative to CAPS1 (bands of the immunoprecipitate) (Rbcn3 subunit : CAPS1): 0.167
